In one data set the test system is O=C(CO)c1ccccc1. Put plainly: reduction of 2-hydroxyacetophenone with NADPH, apparent kinetic parameters by Lineweaver-Burk plots. Format: biochemical, Candida parapsilosis. On the procedure:
(§1) Since environmental pH value can have an influence on the stereochemistry of enzymatic reactions (Secundo and Phillips, Enzyme Microb. Technol., 19, 487-492 (1996)), the effect of the reaction pH on the activities of SCRs catalyzing 2-hydroxyacetophenone reduction was also investigated. […] Subsequently, the enzymes were evaluated under their individual optimal pH, and apparent kinetic parameters were further measured by double reciprocal Lineweaver-Burk plots at various 2-hydroxyacetophenone concentrations with fixed NADPH concentrations. […] The values are the average of three independent experiments.
(§2) Enzyme Assays. Carbonyl reductase activity was measured by a continuous spectrophotometric assay using 2-hydroxyacetophenone as a substrate. One unit of enzyme activity was defined as the amount of enzyme catalyzing the oxidation of 1 μmol NAD(P)H per min under the assay conditions. The standard assay mixture for the enzyme activity comprised of 0.1 M potassium phosphate buffer (pH 6.5), 0.3 mM NAD(P)H, 0.7 mM 2-hydroxyacetophenone and appropriate enzyme in a total volume of 100 μl. The decrease in the amount of the coenzyme was measured spectrophotometrically at 340 nm (extinction coefficient [ε]=6.22 mM^−1 cm^−1). Protein concentration was determined using Bradford reagents (Bio-Rad) with bovine serum albumin as a standard. The pH dependence of enzyme activity was determined over a pH range of 4.0 to 8.5 using the following buffers: 0.1 M acetate (pH 4.0 to 6.0), 0.1 M sodium phosphate (pH 6.0 to 8.0) and 0.1 M Tris-HCl (pH 8.0 to 8.5).

Data set [1] can be described thus: Carbonyl reductase activity and kinetic parameters, continuous spectrophotometric assay (NAD(P)H decrease at 340 nm). Format: biochemical. The settings on record: reduction of 2-hydroxyacetophenone. As to the method: Catalytic Properties of Recombinant SCRs. The enzymatic activities of SCR1, SCR2, and SCR3 were investigated for reduction of 2-hydroxyacetophenone.
as §1, §2

A short description of data set [2]: Substrate specificity of SCRs with NADPH as cofactor. Format: biochemical. The source says:
The substrate specificity of SCRs was investigated under the same conditions as described above. Various carbonyl compounds including aryl ketones, aliphatic ketones, α- and β-ketone esters were used as the substrates with the cofactor of NADPH.

Where [3] appears, read: other: pH 5.0 (optimum pH), NADPH as cofactor at fixed concentration, average of three independent experiments.
[4] abbreviates: other: pH 4.5 (optimum pH), NADPH as cofactor.
Setting [5] is: other: pH 6.0 (optimum pH), NADPH as cofactor at fixed concentration, average of three independent experiments.
Setting [6] is: other: pH 5.5 (optimum pH), NADPH as cofactor at fixed concentration, average of three independent experiments.
The mark [7] stands for this setting: NADPH as cofactor, at optimum pH of each enzyme.
[8] abbreviates: compared with the other enzyme (SCR1 vs SCR3).

A word on the Km: it is the substrate concentration at which the rate is half of its maximum. The Vmax is the top rate of the reaction or transport when substrate is in excess. As for “Candida parapsilosis stereospecific carbonyl reductase SCR1, SEQ ID NO:4 (GenBank FJ939565), recombinant with C-terminal His6 tag (Lodderomyces parapsilosis CDC317)”, in the data set on O=C(CO)c1ccccc1 (setting [3]), the Km stood at 9.83 mM and the Vmax is 42 µmol/min/mg.
With “Candida parapsilosis CPADH, SEQ ID NO:1 (GenBank DQ675534) (Lodderomyces parapsilosis CDC317)”, in the data set with O=C(CO)c1ccccc1 (setting [4]), the Km was determined as 5.83 mM and the Vmax stood at 18.3 µmol/min/mg.
As to “Candida parapsilosis stereospecific carbonyl reductase SCR3, SEQ ID NO:2 (GenBank FJ939564), recombinant with C-terminal His6 tag (Lodderomyces parapsilosis CDC317)”, in the data set on O=C(CO)c1ccccc1 (setting [5]), the Km turned out to be 4.68 mM and the Vmax is 32.3 µmol/min/mg.
Regarding “Candida parapsilosis stereospecific carbonyl reductase SCR2, SEQ ID NO:3 (GenBank FJ939563), recombinant with C-terminal His6 tag (Lodderomyces parapsilosis CDC317)”, in the data set with O=C(CO)c1ccccc1 (setting [6]), the Km came out at 4.81 mM and the Vmax was 8.83 µmol/min/mg.

B1: CPADH: C. parapsilosis enzyme encoded by cpadh gene, GenBank DQ675534, comparison enzyme in Table 1 (protein, listed as Candida parapsilosis)
chain: MGEIESYCNKELGPLPTKAPTLSKNVLDLFSLKGKVASVTGSSGGIGWAVAEAYAQAGADVAIWYNSHPADEKAEHLQKTYGVHSKAYKCNISDPKSVEETISQQEKDFGTIDVFVANAGVTWTQGPEIDVDNYDSWNKIISVDLNGVYYCSHNIGKIFKKNGKGSLIITSSISGKIVNIPQLQAPYNTAKAACTHLAKSLAIEWAPFARVNTISPGYIDTDITDFASKDMKAKWWQLTPLGREGLTQELVGGYLYLASNASTFTTGSDVVIDGGYTCP
In the case of B1, the “pH (optimum pH for each enzyme)” value in data set [1] (NADPH as cofactor) came to 4.5. This molecule returned a Specific activity in data set [1] (setting [7]) of 2.70 μmol/min mg protein.

B2: SCR2: stereospecific carbonyl reductase from C. parapsilosis, GenBank FJ939563, recombinant with C-terminal His6 tag (protein, listed as Candida parapsilosis)
chain: MGEIESYCNKELGPLPTKAPTLSKNVLDLFSLKGKVASVTGSSGGIGWAVAEAYAQAGADVAIWYNSHPADEKAEHLQKTYGVRSKAYKCNISDPKSVEETISQQEKDFGTIDVFVANAGVPWTEGPEINVDNYDSWNKIINLDLNGVYYCAHTVGKIFKKNGKGSLVITSSMSGTIVNVPQLQAAYNAAKAACTHLTKSLAVEWAPFARVNCVSPGYIATEISDFVEKDMKAKWWQLTPLGREGLAQELVGAYLYLASNASTYTTGANLAVDGGYTCP
modifications: C-terminal His6 tag
Consider B2, for which, in data set [1] (NADPH as cofactor), the “pH (optimum pH for each enzyme)” value is 5.5. The values for the Specific activity in data set [1] (setting [7]) and in data set [1] (under the assay conditions) were 1.55 μmol/min mg protein and 1.55 µmol/min/mg protein, respectively.

B3: SCR1: stereospecific carbonyl reductase from C. parapsilosis, GenBank FJ939565, recombinant with C-terminal His6 tag (protein, listed as Candida parapsilosis)
chain: MSKDETISYCNDQLGPLPTTAPKVSDNVTDLFSFKGKVVSVTGSSGGIGWAVAEGFAQAGADVAIWYHSHNADEKAKYLQEKYGVKSIAYGCNIGVAEEVQKTVDQIESDFGKIDVFVANAGIPWTDGPEIDVQDLSKWTKIIDTDLNSVYYCAHAIGPIFRKQGKGSLVITASMSATIVNVPQLQAAYNVAKAGVKHLSKSLAVEWAPFARVNSVSPGYISTNLTTFANPDLQKKWVQLTPLGREGHPKELVGAYLYLASDAATFTTGCDLAVDGGYTVP
modifications: C-terminal His6 tag
B3: the “pH (optimum pH for each enzyme)” value in data set [1] (NADPH as cofactor) is on record as 5.0. The molecule further yielded a Specific activity in data set [1] (setting [7]) of 5.16 μmol/min mg protein. Further, the “activity for reduction of ethyl 4-chloro-3-oxobutyrate” value in data set [2] (among the tested β-ketoesters) is “highest activity”. Also, the “activity to m-Cl-2-hydroxyacetophenone” value in data set [2] (setting [8]) is on record as “higher activity”.

B4: SCR3: stereospecific carbonyl reductase from C. parapsilosis, GenBank FJ939564, recombinant with C-terminal His6 tag (protein, listed as Candida parapsilosis)
chain: MGEIESYCNKELGPLPTKAPTLAKNVLDLFSLKGKVASVTGSSGGIGWAVAEAYAQAGADVAIWYNSHPADEKAEHLQKTYGVRSKAYKCNISDPKSVEETISQQEKDFGTIDVFVANAGIPWADGPVIDLENYDAWNKLINTDINGVFYCAHSIGKIFKKNGKGSLIITASLAGSVVTIPQQQTPYNTAKAACLHLAKSLAVEWAPFARVNTVSPGYFETEINGFADEDMREKWYQLTPLGRMGITEELVGGYLYFASNASTFTTGSDLIIDGGFTCP
modifications: C-terminal His6 tag
For the molecule B4, the “pH (optimum pH for each enzyme)” value in data set [1] (NADPH as cofactor) stood at 6.0. Further, the Specific activity in data set [1] (setting [7]) was determined as 4.23 μmol/min mg protein. Further, the “specificity to p-Cl-2-hydroxyacetophenone” value in data set [2] (setting [8]) was “more specific”.

The values above are taken from patent US9422583B2, “Stereospecific carbonyl reductases” (RUTGERS, THE STATE UNIVERSITY OF NEW JERSEY, priority 2009, dated 2016).
